Consider 6 molecules from US10472652B2, “Chemical engineering processes and apparatus for the synthesis of compounds” (TEEWINOT T[…], priority 2013, dated 2019).

The labels stand for the following.
T1: THCA synthase (Cannabis sativa, UniProt Q8GTB6)
T1 construct: His-tag (C); made in house; host or cells: Pichia pastoris (PichiaPink, pPink-HC vector), secreted into the medium; cell-free T3 supernatant used
T1 sequence (Q8GTB6 29-545): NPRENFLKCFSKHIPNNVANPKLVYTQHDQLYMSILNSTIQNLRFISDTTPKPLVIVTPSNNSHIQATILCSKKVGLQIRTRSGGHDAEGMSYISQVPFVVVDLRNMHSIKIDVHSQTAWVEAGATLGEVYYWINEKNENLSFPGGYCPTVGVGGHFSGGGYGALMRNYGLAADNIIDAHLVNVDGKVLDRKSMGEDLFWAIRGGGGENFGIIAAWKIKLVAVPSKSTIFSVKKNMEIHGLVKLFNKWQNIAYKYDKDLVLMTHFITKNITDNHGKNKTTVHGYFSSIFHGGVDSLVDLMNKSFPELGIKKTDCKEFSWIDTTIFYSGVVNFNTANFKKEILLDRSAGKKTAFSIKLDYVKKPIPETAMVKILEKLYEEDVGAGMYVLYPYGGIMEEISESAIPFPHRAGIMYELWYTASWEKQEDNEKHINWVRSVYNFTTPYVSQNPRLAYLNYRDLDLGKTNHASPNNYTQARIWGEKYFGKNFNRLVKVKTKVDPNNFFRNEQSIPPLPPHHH

B1: Pme THC #5: cell free supernatant with THCA synthase from a pPink yeast colony transformed with Pme I linearized THCA synthase plasmid (protein, UniProt Q8GTB6 29-545, looked up)
Tetrahydrocannabinolic acid …: NPRENFLKCFSKHIPNNVANPKLVYTQHDQLYMSILNSTIQNLRFISDTTPKPLVIVTPSNNSHIQATILCSKKVGLQIRTRSGGHDAEGMSYISQVPFVVVDLRNMHSIKIDVHSQTAWVEAGATLGEVYYWINEKNENLSFPGGYCPTVGVGGHFSGGGYGALMRNYGLAADNIIDAHLVNVDGKVLDRKSMGEDLFWAIRGGGGENFGIIAAWKIKLVAVPSKSTIFSVKKNMEIHGLVKLFNKWQNIAYKYDKDLVLMTHFITKNITDNHGKNKTTVHGYFSSIFHGGVDSLVDLMNKSFPELGIKKTDCKEFSWIDTTIFYSGVVNFNTANFKKEILLDRSAGKKTAFSIKLDYVKKPIPETAMVKILEKLYEEDVGAGMYVLYPYGGIMEEISESAIPFPHRAGIMYELWYTASWEKQEDNEKHINWVRSVYNFTTPYVSQNPRLAYLNYRDLDLGKTNHASPNNYTQARIWGEKYFGKNFNRLVKVKTKVDPNNFFRNEQSIPPLPPHHH
modifications: yeast culture supernatant
notes: cell free supernatant with THCA synthase from a pPink yeast colony transformed with Pme I linearized THCA synthase plasmid
B2: Pme THC(2) #1: cell free supernatant with THCA synthase from a pPink yeast colony transformed with Pme I linearized THCA synthase plasmid (protein, UniProt Q8GTB6 29-545, looked up)
Tetrahydrocannabinolic acid …: NPRENFLKCFSKHIPNNVANPKLVYTQHDQLYMSILNSTIQNLRFISDTTPKPLVIVTPSNNSHIQATILCSKKVGLQIRTRSGGHDAEGMSYISQVPFVVVDLRNMHSIKIDVHSQTAWVEAGATLGEVYYWINEKNENLSFPGGYCPTVGVGGHFSGGGYGALMRNYGLAADNIIDAHLVNVDGKVLDRKSMGEDLFWAIRGGGGENFGIIAAWKIKLVAVPSKSTIFSVKKNMEIHGLVKLFNKWQNIAYKYDKDLVLMTHFITKNITDNHGKNKTTVHGYFSSIFHGGVDSLVDLMNKSFPELGIKKTDCKEFSWIDTTIFYSGVVNFNTANFKKEILLDRSAGKKTAFSIKLDYVKKPIPETAMVKILEKLYEEDVGAGMYVLYPYGGIMEEISESAIPFPHRAGIMYELWYTASWEKQEDNEKHINWVRSVYNFTTPYVSQNPRLAYLNYRDLDLGKTNHASPNNYTQARIWGEKYFGKNFNRLVKVKTKVDPNNFFRNEQSIPPLPPHHH
modifications: yeast culture supernatant
notes: as for B1
B3: Pme THC(2) #2A: cell free supernatant with THCA synthase from a pPink yeast colony transformed with Pme I linearized THCA synthase plasmid (protein, UniProt Q8GTB6 29-545, looked up)
Tetrahydrocannabinolic acid …: NPRENFLKCFSKHIPNNVANPKLVYTQHDQLYMSILNSTIQNLRFISDTTPKPLVIVTPSNNSHIQATILCSKKVGLQIRTRSGGHDAEGMSYISQVPFVVVDLRNMHSIKIDVHSQTAWVEAGATLGEVYYWINEKNENLSFPGGYCPTVGVGGHFSGGGYGALMRNYGLAADNIIDAHLVNVDGKVLDRKSMGEDLFWAIRGGGGENFGIIAAWKIKLVAVPSKSTIFSVKKNMEIHGLVKLFNKWQNIAYKYDKDLVLMTHFITKNITDNHGKNKTTVHGYFSSIFHGGVDSLVDLMNKSFPELGIKKTDCKEFSWIDTTIFYSGVVNFNTANFKKEILLDRSAGKKTAFSIKLDYVKKPIPETAMVKILEKLYEEDVGAGMYVLYPYGGIMEEISESAIPFPHRAGIMYELWYTASWEKQEDNEKHINWVRSVYNFTTPYVSQNPRLAYLNYRDLDLGKTNHASPNNYTQARIWGEKYFGKNFNRLVKVKTKVDPNNFFRNEQSIPPLPPHHH
modifications: yeast culture supernatant
notes: as for B1
B4: Pme THC(2) #41: cell free supernatant with THCA synthase from a pPink yeast colony transformed with Pme I linearized THCA synthase plasmid (protein, UniProt Q8GTB6 29-545, looked up)
Tetrahydrocannabinolic acid …: NPRENFLKCFSKHIPNNVANPKLVYTQHDQLYMSILNSTIQNLRFISDTTPKPLVIVTPSNNSHIQATILCSKKVGLQIRTRSGGHDAEGMSYISQVPFVVVDLRNMHSIKIDVHSQTAWVEAGATLGEVYYWINEKNENLSFPGGYCPTVGVGGHFSGGGYGALMRNYGLAADNIIDAHLVNVDGKVLDRKSMGEDLFWAIRGGGGENFGIIAAWKIKLVAVPSKSTIFSVKKNMEIHGLVKLFNKWQNIAYKYDKDLVLMTHFITKNITDNHGKNKTTVHGYFSSIFHGGVDSLVDLMNKSFPELGIKKTDCKEFSWIDTTIFYSGVVNFNTANFKKEILLDRSAGKKTAFSIKLDYVKKPIPETAMVKILEKLYEEDVGAGMYVLYPYGGIMEEISESAIPFPHRAGIMYELWYTASWEKQEDNEKHINWVRSVYNFTTPYVSQNPRLAYLNYRDLDLGKTNHASPNNYTQARIWGEKYFGKNFNRLVKVKTKVDPNNFFRNEQSIPPLPPHHH
modifications: yeast culture supernatant
notes: as for B1
B5: Pme THC(2) #25: cell free supernatant with THCA synthase from a pPink yeast colony transformed with Pme I linearized THCA synthase plasmid (protein, UniProt Q8GTB6 29-545, looked up)
Tetrahydrocannabinolic acid …: NPRENFLKCFSKHIPNNVANPKLVYTQHDQLYMSILNSTIQNLRFISDTTPKPLVIVTPSNNSHIQATILCSKKVGLQIRTRSGGHDAEGMSYISQVPFVVVDLRNMHSIKIDVHSQTAWVEAGATLGEVYYWINEKNENLSFPGGYCPTVGVGGHFSGGGYGALMRNYGLAADNIIDAHLVNVDGKVLDRKSMGEDLFWAIRGGGGENFGIIAAWKIKLVAVPSKSTIFSVKKNMEIHGLVKLFNKWQNIAYKYDKDLVLMTHFITKNITDNHGKNKTTVHGYFSSIFHGGVDSLVDLMNKSFPELGIKKTDCKEFSWIDTTIFYSGVVNFNTANFKKEILLDRSAGKKTAFSIKLDYVKKPIPETAMVKILEKLYEEDVGAGMYVLYPYGGIMEEISESAIPFPHRAGIMYELWYTASWEKQEDNEKHINWVRSVYNFTTPYVSQNPRLAYLNYRDLDLGKTNHASPNNYTQARIWGEKYFGKNFNRLVKVKTKVDPNNFFRNEQSIPPLPPHHH
modifications: yeast culture supernatant
notes: as for B1
B6: Pme THC(2) #36: cell free supernatant with THCA synthase from a pPink yeast colony transformed with Pme I linearized THCA synthase plasmid (protein, UniProt Q8GTB6 29-545, looked up)
Tetrahydrocannabinolic acid …: NPRENFLKCFSKHIPNNVANPKLVYTQHDQLYMSILNSTIQNLRFISDTTPKPLVIVTPSNNSHIQATILCSKKVGLQIRTRSGGHDAEGMSYISQVPFVVVDLRNMHSIKIDVHSQTAWVEAGATLGEVYYWINEKNENLSFPGGYCPTVGVGGHFSGGGYGALMRNYGLAADNIIDAHLVNVDGKVLDRKSMGEDLFWAIRGGGGENFGIIAAWKIKLVAVPSKSTIFSVKKNMEIHGLVKLFNKWQNIAYKYDKDLVLMTHFITKNITDNHGKNKTTVHGYFSSIFHGGVDSLVDLMNKSFPELGIKKTDCKEFSWIDTTIFYSGVVNFNTANFKKEILLDRSAGKKTAFSIKLDYVKKPIPETAMVKILEKLYEEDVGAGMYVLYPYGGIMEEISESAIPFPHRAGIMYELWYTASWEKQEDNEKHINWVRSVYNFTTPYVSQNPRLAYLNYRDLDLGKTNHASPNNYTQARIWGEKYFGKNFNRLVKVKTKVDPNNFFRNEQSIPPLPPHHH
modifications: yeast culture supernatant
notes: as for B1

The data set addresses T1, THCA synthase. Briefly: catalytic activity of THCA synthase from independent colonies of transformed pPink yeast cells (conversion of CBGA to THCA). Format: biochemical. The settings on record: 25 μl cell free supernatant of T3 sample, 100 mM citrate buffer, 10% DMSO, final pH 5.0, 2 hours at 30° C. How it is done: After 24 hours a 100 μL of the cell sample was removed to which was added 100 μL of 40% methanol to induce enzyme production. This methanolic sample was then centrifuged at 12,000 rpm for 5 minutes and the supernatant and pellet were saved as the T1 sample. A second culture sample was obtained after a 48 hour incubation period and treated with methanol as described above. After centrifugation, the supernatant and pellet are saved as the T2 sample. At 72 hours the entire incubation mixture is treated with an appropriate volume of 40% methanol. The supernatant and pellet obtained from methanolic treatment of the culture after a 72 hour incubation period is labeled as T3. The T3 supernatant was spun through an Amicon 30 kD protein filter and analyzed for protein using an SDS-PAGE gel.
The catalytic activity of THCA synthase was measured by incubating 25 μl of the cell free supernatant from a T3 sample with 25 μl of a 1 mg/ml CBGA stock in 200 μl of a 100 mM citrate buffer at pH 4.8 having 10% DMSO for 2 hours at 30° C. The final concentration of CBGA in the reaction mixture was 0.1 mg/ml and the final pH is 5.0. Table 4 illustrates the data related to the catalytic activity of THCA synthase obtained from independent colonies of transformed pPink yeast cells, namely. pPink yeast cells that were transformed using linearized THCA synthase plasmids. Culture samples that converted greater than 20% of the substrate CBGA to product THCA were selected for scale up.
For the molecule B1, the “% Conversion of CBGA to THCA in reaction containing 0.1 mg/ml CBGA.” value (shortened to “% Conversion of CBGA to THCA”) is 32.5%.

B2: the “% Conversion of CBGA to THCA” value is 29.1%.

On to B3, for which the “% Conversion of CBGA to THCA” value was found to be 27.2%.

With B4, the “% Conversion of CBGA to THCA” value is 32.5%.

Take B5: the “% Conversion of CBGA to THCA” value worked out at 31.6%.

For the molecule B6, the “% Conversion of CBGA to THCA” value was 27.7%.
